Molecular target: MUS81-EME1 complex (human) (UniProt Q96NY9)
Chain of UniProt Q96NY9 (Q96NY9 whole entry, chain 1 of 2): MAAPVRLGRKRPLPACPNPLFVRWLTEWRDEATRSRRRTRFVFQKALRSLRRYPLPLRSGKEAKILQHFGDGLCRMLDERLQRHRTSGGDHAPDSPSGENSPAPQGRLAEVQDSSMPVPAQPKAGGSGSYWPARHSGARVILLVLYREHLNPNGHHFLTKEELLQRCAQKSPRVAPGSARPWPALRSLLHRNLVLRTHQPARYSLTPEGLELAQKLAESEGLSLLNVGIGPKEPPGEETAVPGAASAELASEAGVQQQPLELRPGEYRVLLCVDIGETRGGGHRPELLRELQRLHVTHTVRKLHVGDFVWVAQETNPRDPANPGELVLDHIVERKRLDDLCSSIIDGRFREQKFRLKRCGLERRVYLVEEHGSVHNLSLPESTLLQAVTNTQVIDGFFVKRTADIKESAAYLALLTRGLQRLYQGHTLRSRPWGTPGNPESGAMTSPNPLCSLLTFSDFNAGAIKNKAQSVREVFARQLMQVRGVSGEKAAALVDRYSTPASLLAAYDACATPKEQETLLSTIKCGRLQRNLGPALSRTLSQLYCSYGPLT
Chain of UniProt Q96NY9 (Q96AY2 whole entry, chain 2 of 2, further chain): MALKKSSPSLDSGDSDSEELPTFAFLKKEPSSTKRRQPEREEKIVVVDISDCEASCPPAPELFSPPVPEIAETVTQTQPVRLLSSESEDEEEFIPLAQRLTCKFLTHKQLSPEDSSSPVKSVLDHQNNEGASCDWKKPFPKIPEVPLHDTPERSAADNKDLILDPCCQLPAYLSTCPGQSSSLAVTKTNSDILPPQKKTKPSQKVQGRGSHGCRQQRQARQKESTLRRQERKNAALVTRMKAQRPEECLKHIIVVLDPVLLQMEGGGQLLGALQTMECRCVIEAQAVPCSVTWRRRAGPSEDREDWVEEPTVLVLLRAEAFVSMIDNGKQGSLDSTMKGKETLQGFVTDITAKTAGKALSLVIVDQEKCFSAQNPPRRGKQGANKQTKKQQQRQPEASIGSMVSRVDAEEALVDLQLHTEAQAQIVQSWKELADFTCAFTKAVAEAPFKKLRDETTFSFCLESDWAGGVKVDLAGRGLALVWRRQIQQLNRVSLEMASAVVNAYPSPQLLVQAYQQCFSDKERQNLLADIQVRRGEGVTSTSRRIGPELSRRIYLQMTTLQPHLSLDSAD

B1: Fanconi anemia complementation group A protein (FANCA) (natural protein)
chain: MSDSWVPNSASGQDPGGRRRAWAELLAGRVKREKYNPERAQKLKESAVRLLRSHQDLNALLLEVEGPLCKKLSLSKVIDCDSSEAYANHSSSFIGSALQDQASRLGVPVGILSAGMVASSVGQICTAPAETSHPVLLTVEQRKKLSSLLEFAQYLLAHSMFSRLSFCQELWKIQSSLLLEAVWHLHVQGIVSLQELLESHPDMHAVGSWLFRNLCCLCEQMEASCQHADVARAMLSDFVQMFVLRGFQKNSDLRRTVEPEKMPQVTVDVLQRMLIFALDALAAGVQEESSTHKIVRCWFGVFSGHTLGSVISTDPLKRFFSHTLTQILTHSPVLKASDAVQMQREWSFARTHPLLTSLYRRLFVMLSAEELVGHLQEVLETQEVHWQRVLSFVSALVVCFPEAQQLLEDWVARLMAQAFESCQLDSMVTAFLVVRQAALEGPSAFLSYADWFKASFGSTRGYHGCSKKALVFLFTFLSELVPFESPRYLQVHILHPPLVPGKYRSLLTDYISLAKTRLADLKVSIENMGLYEDLSSAGDITEPHSQALQDVEKAIMVFEHTGNIPVTVMEASIFRRPYYVSHFLPALLTPRVLPKVPDSRVAFIESLKRADKIPPSLYSTYCQACSAAEEKPEDAALGVRAEPNSAEEPLGQLTAALGELRASMTDPSQRDVISAQVAVISERLRAVLGHNEDDSSVEISKIQLSINTPRLEPREHMAVDLLLTSFCQNLMAASSVAPPERQGPWAALFVRTMCGRVLPAVLTRLCQLLRHQGPSLSAPHVLGLAALAVHLGESRSALPEVDVGPPAPGAGLPVPALFDSLLTCRTRDSLFFCLKFCTAAISYSLCKFSSQSRDTLCSCLSPGLIKKFQFLMFRLFSEARQPLSEEDVASLSWRPLHLPSADWQRAALSLWTHRTFREVLKEEDVHLTYQDWLHLELEIQPEADALSDTERQDFHQWAIHEHFLPESSASGGCDGDLQAACTILVNALMDFHQSSRSYDHSENSDLVFGGRTGNEDIISRLQEMVADLELQQDLIVPLGHTPSQEHFLFEIFRRRLQALTSGWSVAASLQRQRELLMYKRILLRLPSSVLCGSSFQAEQPITARCEQFFHLVNSEMRNFCSHGGALTQDITAHFFRGLLNACLRSRDPSLMVDFILAKCQTKCPLILTSALVWWPSLEPVLLCRWRRHCQSPLPRELQKLQEGRQFASDFLSPEAASPAPNPDWLSAAALHFAIQQVREENIRKQLKKLDCEREELLVFLFFFSLMGLLSSHLTSNSTTDLPKAFHVCAAILECLEKRKISWLALFQLTESDLRLGRLLLRVAPDQHTRLLPFAFYSLLSYFHEDAAIREEAFLHVAVDMYLKLVQLFVAGDTSTVSPPAGRSLELKGQGNPVELITKARLFLLQLIPRCPKKSFSHVAELLADRGDCDPEVSAALQSRQQAAPDADLSQEPHLF
MUS81-EME1-mediated incision of psoralen ICL-damaged 3' ssDNA branch substrate (1.5 nM MUS81-EME1; FANCA 0-20 nM), fold stimulation: 14 fold
MUS81-EME1-mediated incision of undamaged DNA (1.5 nM MUS81-EME1; FANCA 0-20 nM): enhanced up to 5 nM FANCA (Phase I), inhibited from 10 to 20 nM and abrogated at 20 nM FANCA (Phase II): 3 fold

Source: PMC3919598
